The source of these data is paper PMC11393876 (Cancers, 2024).

Holding throughout (conditions): both partners purified
Assay [1] addresses T1, human PD-1 (Homo sapiens, UniProt Q15116).
T1 construct: programmed cell death 1 (PD-1), human; also called PD-1/His antigen; human PD-1 proteins; source: bought: Sino Biological (HPLC-10377-H08H) for the ELISA
The assay can be described thus: ELISA; direct binding ELISA; antigens coated overnight, blocked with 1% BSA 2 h; P1801 incubated at 25 °C for 1 h; detected with peroxidase goat anti-hIgG Fc. On the technique in general: ELISA stands for enzyme-linked immunosorbent assay.

Another assay deals with T2, human CTLA-4 (Homo sapiens, UniProt P16410).
T2 construct: CTLA-4, human; source: bought: Sino Biological (11159-H08H)
The description is as above.

Another assay concerns the target T3, human PD-L2 (human, UniProt Q9BQ51).
T3 construct: PD-L2, human; source: bought: Sino Biological (10292-H08H)
The description is as above.

A further assay addresses T4, human CD28 (Homo sapiens, UniProt P10747).
T4 construct: CD28, human; source: bought: Sino Biological (11524-HCCH)
The description is as above.

Another assay concerns the target T5, cynomolgus PD-1 (Macaca fascicularis (cynomolgus), UniProt B0LAJ3).
T5 construct: PD-1, cynomolgus monkey, GenBank NP_001271065.1; source: bought: Sino Biological (90311-C08H)
The assay is described as above.

For another assay, the target named is T6, mouse PD-1 (Mus musculus, UniProt Q02242).
T6 construct: PD-1, mouse; source: bought: Sino Biological (50124-M08H)
The assay is described as above.

The target in a further assay is T7, human PD-L1 (human, UniProt Q9NZQ7).
T7 construct: programmed death-ligand 1 (PD-L1), human; also called programmed death-ligand 1; source: bought: Sino Biological (10084-H08H)
The assay is described as above.

Assay [2] addresses T8, Biotin-hPD-1-mIgG Fc (human, UniProt Q15116, biotin).
T8 construct: PD-1, human; also called hPD-1-mFc; source: PharmaEssentia, purified fusion protein
Kind of assay: ELISA; competitive ELISA; human PD-L2 coated; Biotin-hPD-1-mIgG Fc at 0.025 μg/mL as binder; serial dilutions of P1801 from 0.5 μg/mL as competitor; 25 °C, 2 h.

Assay [3] deals with T8, Biotin-hPD-1-mIgG Fc. Kind of assay: ELISA; competitive ELISA; human PD-L1 coated; Biotin-hPD-1-mIgG Fc at 0.025 μg/mL as binder; serial dilutions of P1801 from 0.5 μg/mL as competitor; 25 °C, 2 h.
Assay [4] deals with T1, human PD-1. The assay can be described thus: SPR; P1801 (2 µg/mL) captured on the surface; human PD-1 proteins injected; 25 °C; HBS-EP (10 mM HEPES, 150 mM NaCl, 3 mM EDTA, 0.05% Tween 20, pH 7.4). On the technique in general: Surface plasmon resonance follows binding to a sensor surface in real time, without labels.

T8 sequence (Q15116 25-170): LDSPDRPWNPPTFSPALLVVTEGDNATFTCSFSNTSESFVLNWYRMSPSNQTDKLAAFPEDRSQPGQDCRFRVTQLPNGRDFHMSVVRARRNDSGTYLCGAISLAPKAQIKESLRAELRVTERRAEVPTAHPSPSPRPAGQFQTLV
T1 sequence (Q15116 25-170): as above
T6 sequence (Q02242 25-169): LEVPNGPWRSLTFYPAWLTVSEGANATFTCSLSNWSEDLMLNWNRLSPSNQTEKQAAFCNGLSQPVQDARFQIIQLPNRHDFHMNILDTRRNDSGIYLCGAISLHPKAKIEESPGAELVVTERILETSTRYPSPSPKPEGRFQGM
T2 sequence (P16410 36-161): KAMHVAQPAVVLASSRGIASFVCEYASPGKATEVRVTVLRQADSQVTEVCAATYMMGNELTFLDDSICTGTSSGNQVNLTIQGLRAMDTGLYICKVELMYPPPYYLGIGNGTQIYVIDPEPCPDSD
T3 sequence (Q9BQ51 20-220): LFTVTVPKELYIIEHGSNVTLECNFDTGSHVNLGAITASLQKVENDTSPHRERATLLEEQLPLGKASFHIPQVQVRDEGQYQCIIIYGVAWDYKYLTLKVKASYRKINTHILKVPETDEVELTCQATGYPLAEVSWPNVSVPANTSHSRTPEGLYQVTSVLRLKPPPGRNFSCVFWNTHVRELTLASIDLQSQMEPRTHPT
T7 sequence (Q9NZQ7 19-238): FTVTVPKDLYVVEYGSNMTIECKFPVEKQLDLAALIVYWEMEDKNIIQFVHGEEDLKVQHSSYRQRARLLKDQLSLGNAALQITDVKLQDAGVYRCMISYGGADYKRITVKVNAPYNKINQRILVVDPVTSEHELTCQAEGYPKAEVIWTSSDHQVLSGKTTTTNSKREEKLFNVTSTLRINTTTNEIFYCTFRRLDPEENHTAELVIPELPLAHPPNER
T4 sequence (P10747 19-152): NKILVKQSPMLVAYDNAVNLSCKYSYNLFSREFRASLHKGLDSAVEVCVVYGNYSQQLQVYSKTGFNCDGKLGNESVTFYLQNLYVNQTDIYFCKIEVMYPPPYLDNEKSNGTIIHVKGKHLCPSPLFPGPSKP

B1: P1801 (antibody, V domains shown)
VH: EVQLVESGGGLVQPGGSLRLSCAASGFTFSSYDMSWVRQAPGKGLEWVATITGGGSYTYYPDSVKGRFTISRDNAKNSLYLQMNSLRAEDTAVYYCASPYLNYFDYWGQGTLVTVSS
VL: EIVLTQSPATLSLSPGERATLSCRASQSISNNLHWYQQKPGQAPRLLIYYASQSISGIPARFSGSGSGTDFTLTISSLEPEDFAVYYCQQSNSWPLTFGQGTKLEIK
notes: 464 residues; mouse CDR1-3 in a human IgG4 framework with the S228P mutation; kappa light chain, 234 residues; mouse CDRs in a human framework; IgG4 kappa, S228P; humanized from murine clone PD-1RB-M59; The printed lengths (464 and 234 residues) may include signal peptides; Molecular weight 146,799 Da; also called anti-human PD-1 IgG4 humanized monoclonal antibody; source: CHO cell expression …
As usually defined, the EC50 is the midpoint of the concentration-response curve. Broadly, the IC50 is the concentration at which inhibition is half-maximal. In general, Kd refers to a measure of binding affinity in units of concentration. A higher Kd goes with weaker binding. As to B1, the EC50 with human PD-1 [1] was 0.57 nM; with cynomolgus PD-1, 0.44 nM. The binding result with human CTLA-4, with human PD-L2, with human CD28, in the assay with mouse PD-1 and with human PD-L1 was “no binding” each time. Also, the IC50 is 0.9 nM with Biotin-hPD-1-mIgG Fc [2] and 0.57 nM in the assay with Biotin-hPD-1-mIgG Fc [3]. In addition, in the assay with human PD-1 [4], the Kd was 2.5 nM.
